Experimental data reported in patent publication US20160333065A1 (ACADEMISCH ZIEKENHUIS LEIDEN H O D N LUMC, published 2016).
Values belong to the binder of their own block, whether it stands above or below them.

What was measured:
HLA-B8 (B*0801) [1] = target: T1, HLA-B8 (B*0801) (human); assay: competition vs FLRGRAC(FI)GL on stripped B-LCL, FACS
T1 construct: HLA class I on acid-stripped EBV-transformed B cells (B-LCL)

HLA-B7 (B*0702) [2] = target: T2, HLA-B7 (B*0702) (human); assay: competition vs APAPAPC(FI)WPL on stripped B-LCL, FACS
T2 construct: HLA class I on acid-stripped EBV-transformed B cells (B-LCL)

HLA-B8 (B*0801) [3] = target: T3, HLA-B8 (B*0801) (human); assay: cell competition vs FLRGRAC(FI)GL, stripped Vavy B-LCL, FACS
T3 construct: Acid-stripped B-LCL

HLA-B7 (B*0702) [4] = target: T4, HLA-B7 (B*0702) (human); assay: cell competition vs APAPAPC(FI)WPL, stripped JY B-LCL, FACS
T4 construct: Acid-stripped B-LCL

HLA-A3 (A*0301) = target: T5, HLA-A3 (A*0301) (human); assay: cellular competition binding assay on acid-stripped B-LCL EKR, flow cytometry; competitor Fl-labeled reference peptide KVFPC(Fl)ALINK
T5 construct: MHC class I molecule on mild-acid-stripped EBV-transformed B cells (EKR)

HLA-B8 (B*0801) [5] = target: T6, HLA-B8 (B*0801) (human); assay: cellular competition binding assay on acid-stripped B-LCL Vavy, flow cytometry; competitor Fl-labeled reference peptide FLRGRAC(Fl)GL
T6 construct: MHC class I molecule on mild-acid-stripped EBV-transformed B cells (Vavy)

HLA-B35 (B*3501) = target: T7, HLA-B35 (B*3501) (human); assay: cellular competition binding assay on acid-stripped B-LCL BVR, flow cytometry; competitor Fl-labeled reference peptide NPDIVC(Fl)YQY
T7 construct: MHC class I molecule on mild-acid-stripped EBV-transformed B cells (BVR)

HLA-B60 (B*4001) = target: T8, HLA-B60 (B*4001) (human); assay: cellular competition binding assay on acid-stripped B-LCL DKB, flow cytometry; competitor Fl-labeled reference peptide KESTC(Fl)HLVL
T8 construct: MHC class I molecule on mild-acid-stripped EBV-transformed B cells (DKB)

HLA-B62 (B*1501) = target: T9, HLA-B62 (B*1501) (human); assay: cellular competition binding assay on acid-stripped B-LCL BSM, flow cytometry; competitor Fl-labeled reference peptide YLGEFSC(Fl)TY
T9 construct: MHC class I molecule on mild-acid-stripped EBV-transformed B cells (BSM)

IC50 (HLA-B8 (B*0801) [1]): < 1 µM
IC50 (HLA-B7 (B*0702) [2]): < 1 µM
B1: PRAME 113-122 RPRRWKLQVL (peptide)
peptide: RPRRWKLQVL

IC50 (HLA-B8 (B*0801) [3]): < 1 µM
IC50 (HLA-B7 (B*0702) [4]): < 1 µM
B2: PRAME peptide RPRRWKLQVL (peptide)
peptide: RPRRWKLQVL

IC50 (HLA-A3 (A*0301)): 1 µM
B3: PRAME 459-468 RLAYLHARLR (peptide)
peptide: RLAYLHARLR

IC50 (HLA-B8 (B*0801) [5]): < 1 µM
B4: PRAME 462-470 YLHARLREL (peptide)
peptide: YLHARLREL

IC50 (HLA-B35 (B*3501)): 0.32 µM
B5: PRAME 499-507 EPILCPCFM (peptide)
peptide: EPILCPCFM

IC50 (HLA-B60 (B*4001)): < 1 µM
B6: PRAME 448-457 YEDIHGTLHL (peptide)
peptide: YEDIHGTLHL

IC50 (HLA-B62 (B*1501)): 1.66 µM
B7: PRAME 439-448 VLYPVPLESY (peptide)
peptide: VLYPVPLESY
